B1: HDV Ribozyme (parent)
chain: GGCCGGCAUGGUCCCAGCCUCCUCGCUGGCGCCGGCUGGGCAACAUUCCGAGGGGACCGUCCCCUCGGUAAUGGCGAAUGGGACCCA

The values that follow come from the RNAGym collection of RNA variant scans (doi:10.7554/elife.80360).

The variants in the data set derive from B1. Nature of the data set: self-cleavage, relative activity (ratio to wild type); higher = more cleavage; co-transcriptional.
Turning to GGCCGGCAUGGUCCCAGCAUCCUCGCUGGCGCCGGCUGGGCAACAUUCCGAGGGGACCGUCCCAUCGGUAAUGGCGAAUGGGACCCA, the self-cleavage was found to be 0.141.

For GGCCGGCAUGGUCCCAGCAUCCUCGCUGGCGCCGGCUGGGCAACAUUCCGAGGGGACCGUCCCUUCGGUAAUGGCGAAUGGGACCCA, the self-cleavage worked out at 0.128.

On to GGCCGGCAUGGUCCCAGCAUCCUCGCUGGCGCCGGCUGGGCAACAUUCCGAGGGGACCGUCCCGUCGGUAAUGGCGAAUGGGACCCA, for which the self-cleavage stood at 0.111.

For the variant GGCCGGCAUGGUCCCAGCAUCCUCGCGGGCGCCGGCUGGGCAACAUUCCGAGGGGACCGUCCCCUCGGUAAUGGCGAAUGGGACCCA, the self-cleavage turned out to be 0.158.

Turning to GGCCGGCAUGGUCCCAGCGUCCUCGCUGGCGCCGGCUGGGCAUCAUUCCGAGGGGACCGUCCCCUCGGUAAUGGCGAAUGGGACCCA, the self-cleavage was 0.0594.

Regarding GGCCGGCAUGGUCCCAGCGUCCUCGCUGGCGCCGGCUGGGCACCAUUCCGAGGGGACCGUCCCCUCGGUAAUGGCGAAUGGGACCCA, the self-cleavage came out at 0.0652.

Regarding GGCCGGCAUGGUCCCAGCAUCCUCGCUGGCGCCGGCUGGGCAACAUUCCGAGGGAACCGUCCCCUCGGUAAUGGCGAAUGGGACCCA, the self-cleavage came out at 0.0906.

Take GGCCGGCAUGGUCCCAGCAUCCUCGCUCGCGCCGGCUGGGCAACAUUCCGAGGGGACCGUCCCCUCGGUAAUGGCGAAUGGGACCCA: the self-cleavage is 0.0462.

Consider GGCCGGCAUGGUCCCAGCGUCCUCGCUGGCGCCGGCUGGGCAACAUUCCGCGGGGACCGUCCCCUCGGUAAUGGCGAAUGGGACCCA, for which the self-cleavage came to 0.0369.

In the case of GGCCGGCAUGGUCCCAGCGUCCUCGCUGGCGCCGGCUGGGCAACAUUCCGGGGGGACCGUCCCCUCGGUAAUGGCGAAUGGGACCCA, the self-cleavage amounted to 0.0361.

As to GGCCGGCAUGGUCCCAGCAUCCUCGCUGGCGCCGGCUGGGCAACAUUCCGAGGGGACCGUCCCCUCGGAAAUGGCGAAUGGGACCCA, the self-cleavage came to 0.143.

Take GGCCGGCAUGGUCCCAGCAUCCUCGCUGGCGCCGGCUGGGCAACAUUCCGAGGGGACCGUCCCCUCGGGAAUGGCGAAUGGGACCCA: the self-cleavage was 0.12.

Regarding GGCCGGCAUGGUCCCAGCAUCCUCGCUGGCGCCGGCUGGGCAACAUUCCGAAGGGACCGUCCCCUCGGUAAUGGCGAAUGGGACCCA, the self-cleavage came to 0.0863.

As for GGCCGGCAUGGUCCCAGCAUCCUCGCUGGCGCCGGCUGGGCAACAUUCCGAGGGGACCGUCCCCUCGGUAAUGGAGAAUGGGACCCA, the self-cleavage came out at 0.185.

On to GGCCGGCAUGGUCCCAGCAUCCUCGCUGGCGCCGGCUGGGCAACACUCCGAGGGGACCGUCCCCUCGGUAAUGGCGAAUGGGACCCA, for which the self-cleavage stood at 0.0665.

As for GGCCGGCAUGGUCCCAGCAUCCUCGCUGGCGCCGGCUGGGCAACAUUCCGAGGGGACCGUCCCCUCGCUAAUGGCGAAUGGGACCCA, the self-cleavage worked out at 0.149.

As to GGCCGGCAUGGUCCCAGCAUCCUCGCUGGCGCCGGCUGGGCAACAUUCCGAGGGGACCGUCCCCUCGUUAAUGGCGAAUGGGACCCA, the self-cleavage was determined as 0.178.

For GGCCGGCAUGGUCCCAGCAUCCUCGCUGGCGCCGGCUGGGCAACAUUCCGAGGGGACCGUCCCCUCGGUAAUGGCGAAUGGCACCCA, the self-cleavage came out at 0.133.

For GGCCGGCAUGGUCCCAGCAUCCUCGCUGGCGCCGGCUGGGCAACAUUCCGAGGGGACCGUCCCCUCGGUAAUGGCGAAUGGUACCCA, the self-cleavage worked out at 0.0898.

GGCCGGCAUGGUCCCAGCAUCCUCGCUGCCGCCGGCUGGGCAACAUUCCGAGGGGACCGUCCCCUCGGUAAUGGCGAAUGGGACCCA: the self-cleavage came to 0.0941.

For the variant GGCCGGCAUGGUCCCAGCAUCCUCGCUGACGCCGGCUGGGCAACAUUCCGAGGGGACCGUCCCCUCGGUAAUGGCGAAUGGGACCCA, the self-cleavage stood at 0.

On to GGCCGGCAUGGUCCCAGCAUCCUCGCUGGCGCCGGCUGGGCAACAUUCCGAGGGGACCGUCCCCUCGGUAAUGGCGAAUAGGACCCA, for which the self-cleavage was determined as 0.0329.

GGCCGGCAUGGUCCCAGCAUCCUCGCUGGCGCCGGCUGGGCAACAUUCCGAGGGGACCGUCCCCUCCGUAAUGGCGAAUGGGACCCA: the self-cleavage amounted to 0.0615.

With GGCCGGCAUGGUCCCAGCAUCCUCGCUGGCGCCGGCUGGGCAACAUUCCGAGGGGACCGUCCCCUCGGUAAUGGCGAAUGCGACCCA, the self-cleavage was determined as 0.0272.

For the variant GGCCGGCAUGGUCCCAGCAUCCUCGCUGGCGCCGGCUGGGCAACAUUCCGAGGAGACCGUCCCCUCGGUAAUGGCGAAUGGGACCCA, the self-cleavage is 0.0536.

On to GGCCGGCAUGGUCCCAGCAUCCUCGCUGGCGCCGGCUGUGCAACAUUCCGAGGGGACCGUCCCCUCGGUAAUGGCGAAUGGGACCCA, for which the self-cleavage worked out at 0.0639.

In the case of GGCCGGCAUGGUCCCAGCAUCCUCGCUGGCGCCGGCUGGGCAACAUUCCUAGGGGACCGUCCCCUCGGUAAUGGCGAAUGGGACCCA, the self-cleavage is 0.254.

As to GGCCGGCAUGGUCCCAGCAUCCUCGCUGGCGCCGGCUGGGCAACAUUCCAAGGGGACCGUCCCCUCGGUAAUGGCGAAUGGGACCCA, the self-cleavage is 0.0231.

On to GGCCGGCAUGGUCCCAGCAUCCUCGCUGGCGCCGCCUGGGCAACAUUCCGAGGGGACCGUCCCCUCGGUAAUGGCGAAUGGGACCCA, for which the self-cleavage was found to be 0.125.

As for GGCCGGCAUGGUCCCAGCAUCCUCGCUGGCACCGGCUGGGCAACAUUCCGAGGGGACCGUCCCCUCGGUAAUGGCGAAUGGGACCCA, the self-cleavage was determined as 0.117.

Consider GGCCGGCAUGGUCCCAGCAUCCUCGCUGGCGCCGGCUGGGCAACAUUCCGAGGGGACCGUCCCCUCGGUAAUGGCGAACGGGACCCA, for which the self-cleavage was found to be 0.107.

With GGCCGGCAUGGUCCCAGCAUCCUCGCUGGCGCCGGCUGGGCAACAUUCCGAGGGGACCGUCCCCUCGGUAAUGGCGAAGGGGACCCA, the self-cleavage stood at 0.0923.
